The values below come from PMC7688924, “α-Galactosidase and Sucrose-Kinase Relationships in a Bi-functional AgaSK Enzyme Produced by the Human Gut Symbiont Ruminococcus gnavus E1” (Frontiers in Microbiology, 2020).

Substrate in series [1]: Nc1ncnc2c1ncn2[C@@H]1O[C@H](COP(=O)(O)OP(=O)(O)OP(=O)(O)O)[C@@H](O)[C@H]1O
As to the kind of experiment: bioluminescence ATP consumption assay (luciferin/luciferase). Type of series: biochemical, Mediterraneibacter gnavus. The settings on record: sucrose 5 mM, pH 8.0, 30 °C, ATP 0-10 mM, […] enzyme. The text has this:
bioluminescence ATP consumption assay (luciferin/luciferase) on RgSK

Substrate in the series “purified protein”: O=[N+]([O-])c1ccc(O[C@H]2O[C@H](CO)[C@H](O)[C@H](O)[C@H]2O)cc1
As to the kind of experiment: purified protein. The following applies: McIlvaine's buffer pH 6.0, 42 °C, pNPGal 0.078-10 mM.

Substrate in series [2]: Nc1ncnc2c1ncn2[C@@H]1O[C@H](COP(=O)(O)OP(=O)(O)OP(=O)(O)O)[C@@H](O)[C@H]1O
The series is described as follows: bioluminescence ATP consumption assay (luciferin/luciferase). Type of series: biochemical, Mediterraneibacter gnavus. The settings on record: sucrose 5 mM, pH 8.0, 30 °C, ATP 0-10 mM, […] enzyme. From the text: bioluminescence ATP consumption assay (luciferin/luciferase) on […]
This is another data set of the same source.

B1: RgSK (Mediterraneibacter gnavus) (protein)
chain: RLYEKVQKWCDGNAENRVVISIYGGSGSGKTTLATALQQYFLNDGTECYLLSGDDYPHRIPKRNDEERMRVYKEAGEDGLRGYLGTKKEIDFDRINEVLAAFHEGKDSITLRHMGREDGEISLEETDFSGISVLLLEWTHGGSDDLHGVDLPVFLESSPGETRERRIRRNRDENAASPFICRVVELEQEKLEVQRKNAGLIVGKDGSVYEQ
notes: isolated C-terminal sucrose kinase domain, Arg-724 to Gln-935, C-terminal His6 tag, E. coli BL21(DE3), pOPINE, 23,898 Da
Consider B1, for which, in series [1], the Michaelis constant (Km) came out at 6.3 ± 1.8 mM, the Vmax is 0.0719 µmol/min, the kcat was determined as 27.9 ± 4.3 s⁻¹ and the kcat/Km was 4420 M⁻¹ s⁻¹.

B2: RgAga (Mediterraneibacter gnavus) (protein)
chain: AIIYNPNKKIFTLHTAHTTYQMQVDPLGYLLHLYYGEKTNSSMDYVLTYADRGFSGNPYAAGMDRTYSLDALPQEYPSLGTGDYRNIALNIKNEKGVESADLLFKSYEIRNGKYRLQGLPAVWADEKEAQTLEIVLADENAQVEVHLLYGVLEENDVITRSVRIKNTGTGQITIEKAAAACLDFVQGEFDVLRFYGKHAMERNLERTPLGHGTIAFGSRRGTSSHQYNPAVILAEKGTTETAGSCYGMLFVYSGNFSCEAEKDQFNQTRLLLGLNEELFSYPLASGETFTVPEVILSYSAEGLSALSQQYHNCIRNHVCRSKYVHMQRPVLINSWEAAYFDFTGDTIVDLAKEAASLGIDMVVMDDGWFGKRNDDNSSLGDWQVNETKLGGSLAELITRVHEQGMKFGIWIEPEMINEDSDLYRAHPDWAIRIQGKKPVRSRNQLLLDFSRKEVRDCVFDQICVVLDQGKIDYVKWDMNRSMADVYAGNLSYDYVLGVYDFMERLCSRYPDLLLEGCSGGGGRFDAGMLYYSPQIWCSDNTDAINRTRIQYGTSFFYPVSAMGAHVSAVPNHQTGRVTSFHTRGVTAMAGTFGYELNPALLSDEEKQQIREQIKTYKKYETLINEGTYWRLSDPFTDEIAAWMSVSEEQDHALVSVVRLMAEANQATVYVRLRGLKPDAVYLEEQSGRQYSGAALMHAGIPLPPFTEEYEAYQFAFTELK
In the case of B2, in the series “purified protein”, the Km came out at 1.2 ± 0.2 mM, the Vmax is 0.236 µmol/min, the kcat came to 827 s⁻¹ and the kcat/Km stood at 689000 M⁻¹ s⁻¹.

B3: RgAgaSK (Mediterraneibacter gnavus) (protein)
chain: MAIIYNPNKKIFTLHTAHTTYQMQVDPLGYLLHLYYGEKTNSSMDYVLTYADRGFSGNPYAAGMDRTYSLDALPQEYPSLGTGDYRNIALNIKNEKGVESADLLFKSYEIRNGKYRLQGLPAVWADEKEAQTLEIVLADENAQVEVHLLYGVLEENDVITRSVRIKNTGTGQITIEKAAAACLDFVQGEFDVLRFYGKHAMERNLERTPLGHGTIAFGSRRGTSSHQYNPAVILAEKGTTETAGSCYGMLFVYSGNFSCEAEKDQFNQTRLLLGLNEELFSYPLASGETFTVPEVILSYSAEGLSALSQQYHNCIRNHVCRSKYVHMQRPVLINSWEAAYFDFTGDTIVDLAKEAASLGIDMVVMDDGWFGKRNDDNSSLGDWQVNETKLGGSLAELITRVHEQGMKFGIWIEPEMINEDSDLYRAHPDWAIRIQGKKPVRSRNQLLLDFSRKEVRDCVFDQICVVLDQGKIDYVKWDMNRSMADVYAGNLSYDYVLGVYDFMERLCSRYPDLLLEGCSGGGGRFDAGMLYYSPQIWCSDNTDAINRTRIQYGTSFFYPVSAMGAHVSAVPNHQTGRVTSFHTRGVTAMAGTFGYELNPALLSDEEKQQIREQIKTYKKYETLINEGTYWRLSDPFTDEIAAWMSVSEEQDHALVSVVRLMAEANQATVYVRLRGLKPDAVYLEEQSGRQYSGAALMHAGIPLPPFTEEYEAYQFAFTELKEAGRLYEKVQKWCDGNAENRVVISIYGGSGSGKTTLATALQQYFLNDGTECYLLSGDDYPHRIPKRNDEERMRVYKEAGEDGLRGYLGTKKEIDFDRINEVLAAFHEGKDSITLRHMGREDGEISLEETDFSGISVLLLEWTHGGSDDLHGVDLPVFLESSPGETRERRIRRNRDENAASPFICRVVELEQEKLEVQRKNAGLIVGKDGSVYEQ
notes: full-length bifunctional enzyme (935 residues), produced in E. coli as in Bruel 2011, Ni-NTA and gel filtration, His-tag (C-terminal 6xHis given for recombinant proteins), tetramer
For B3, in the series “purified protein”, the Km turned out to be 1.3 ± 0.2 mM, the Vmax is 0.179 µmol/min, the kcat amounted to 626 s⁻¹ and the specificity constant (kcat/Km) came out at 481000 M⁻¹ s⁻¹. Moreover, in series [2], the Km was determined as 8.4 ± 1.9 mM, the Vmax was 0.0983 µmol/min, the kcat came to 38.1 ± 4.8 s⁻¹ and the kcat/Km came out at 4530 M⁻¹ s⁻¹.
